Experimental data published in the DeepSol protein solubility set.

Test: soluble on expression in E. coli; label from the status in PepcDB or PDB records

Sequence | soluble on expression in E. coli
MQKQAELYRGKAKTVYSTENPDLLVLEFRNDTSAGDGARIEQFDRKGMVNNKFNYFIMSKLAEAGIPTQMERLLSDTECLVKKLDMVPVECVVRNRAAGSLVKRLGIEEGIELNPPLFDLFLKNDAMHDPMVNESYCETFGWVSKENLARMKELTYKANDVLKKLFDDAGLILVDFKLEFGLYKGEVVLGDEFSPDGSRLWDKETLEKMDKDRFRQSLGGLIEAYEAVARRLGVQLD | soluble
MSNPVTITEAAALHIKDMMKEHEEENAFLRVGVKGGGCSGLSYGMGFEHEKSESDSVFDQHGITVLVDKESLDIMNGTVIDYKQSMLGGGFTIDNPNAIASCGCGSSFRTATNAGKPEEC | soluble
YIYRLGKEKEKNDRLIQSITINQMEARQNEEIINSTHSLRVFKHDIMNHMSILYKLVENGKNSDALKYIYQINNSIERTSYTISTGIIPIDCIMTAKLSKALDNNISIKHQIHFPANYNISDMDLCSLISNLLDNAIEANCKLDMTKRRLQIEIKPYNNMLLLFISNSSNGIYLYGGNGNLLTTKTSNKNEHGIGIKRINEIVKKYNGIIEFDPGTEIFSVSILFPLDN | not soluble
MSLNASAPIPLNETQRLLRIRELCVLENTSDDVFDEIVAMTADFFQTPIALISIVDEHRQWFRARVGLNAQETPRNVSFCAYTILSDSLFEIPDATLDDRFMNNSLVTGHPDIRYYAGAPLITDDGIALGSLCVIDTKPREPMSEHQMQMLKRFASLVMKRIVSLRLSCFIDQPTGLYNRSRLQEDIHQALLSSVDYQLVVVDMITSAFLNDIVKALGYSFSQDLVTEIKSRLEHLLPPTCSLYKVSPTRFGFLLPGERAPDHLFRTILEDFETPVECRGIPVQMQVGLGVVTLNRDPTEEQDWMRMVISAADDARDRNLGWAMYEPHFDAAQQRAFKLLSSLTSAVHSHDQLRLVYQPRIDLASGLCTSVEALLRWNHPTLGPIGPAEFVPLAEKTALMRPLSLWVLTSAIEQAARWQQQGFDFRIAINVTPEDLTGPAFTDRMIRLLGQHKIDPTRFELEFTEGALMHNPAEVRHQLERMRQMGMDVAIDDFGTGYSNWNYLRQLPATTVKLDQSLIRNLASDKTDQRLVKALIGLAKKLGYCVVAEGIETDEIRRLVKQWGCDEGQGYLISKPMEADAVLNWLGPDRRLQTVTEAAEAAVIRDKRLEGHHHHHH | soluble
MFKRLFMVALLAIAPLVHAVDQSNPYRLMDEAAKKTFTRLKNEQPKIKQNPDYLRTIVREELLPFVQIKYAGALVLGSYYKDATPAQREAYFNAFGKYLEQAYGQALALYHGQTYDVAPDQPLGDANIVAIRVTILDPSGRPPVRLDFQWRKNSQTGNWQAYDMIAEGVSMISTKQNEWASILRQKGVDGLTQQLLSAAKQPITLDK | not soluble
MGGDMLPSVLKDNLRLPVIASPLFIISHPQLTLAQCKAGVIGAFPALNARPESQLDEWLAMITEELAAYNRANPERPAAPFAVNQIVHMSNRRLEHDLGLCVKYKVPVVISSLGAVPEVNAAVHSYGGIVLHDVINDRHARSAIRKGADGLIAVAAGAGGHAGTLSPFALIQEIREWFDGPLLLAGAIANGGSILAAQAMGADMAYIGSPFIATEEARASDGYKQALVDAQAKDIVYSNYFTGVHGNYLKSSIVASGMDPDNLPEADPSKMDFETATGGAKAWKDIWGAGQGIGAIKAVEPVAALVDRLAAEYEAAKGRICAKA | not soluble
MEKILIFGHQNPDTDTICSAIAYADLKNKLGFNAEPVRLGQVNGETQYALDYFKQESPRLVETAANEVNGVILVDHNERQQSIKDIEEVQVLEVIDHHRIANFETAEPLYYRAEPVGCTATILNKMYKENNVKIEKEIAGLMLSAIISDSLLFKSPTCTDQDVAAAKELAEIAGVDAEEYGLNMLKAGADLSKKTVEELISLDAKEFTLGSKKVEIAQVNTVDIEDVKKRQAELEAVISKVVAEKNLDLFLLVITDILENDSLALAIGNEAAKVEKAFNVTLENNTALLKGVVSRKKQVVPVLTDAMAE | soluble
EEHTIIQAEFYLLPDKRGEFMFDFDGDEIFHVDIEKSETIWRLEEFAKFASFEAQGALANIAVDKANLDVMKERSNNTPDANVAPEVTVLSRSPVNLGEPNILICFIDKFSPPVVNVTWLRNGRPVTEGVSETVFLPRDDHLFRKFHYLTFLPSTDDFYDCEVDHWGLEEPLRKHWEFEE | soluble
MDKFKYAFDNKRYHTWNYYLRNTFGEKVFKVSINAGFTCPNIDGSLGYGGCTYCSKEGSGDFAGNPKDNLISQFYNIKEMMLKKWPHAKYIGYFQAYTNTYAPLEVLKEKYETILELEDVIGLSISTRPDCLPDDIVEYLSELNKRTNLWVELGLQTIHDSTSKIINRGHDYKTFVEGVEKLKSKNIKVVVHIINGLPGEDYNMMMETAKAVGKMGVDGIKIHLLHVIKDTPMEKMLQNGMLTLMEQDEYINLVCDQLEILPETMIIHRLTGDGKRDELVGPIWSLKKWEILNKIDDTLKARNSYQGCKFV | soluble
MSLKPCFGYIRVSTERQGDGASLEAQKDAITGFASQNNLEIVRWFEERETASKTGRPIFGEMMNALVSGAAEGLILHKVDRTARNFSDWSRLHEVAKLGIDVYFAADSLDFGTRGGQLLADIQMALAADYSRNLSQEVKKGIYGRIKNGVYPFRAPLGYLDTGGGNVKAIDPIKAPLVSQVFELYCSGDYSITSLTEEMQRRGLKGVGERPVVRRNIESILRNPFYCGKMLVRGKLYDGAHEPLISTAQYRRVAAIKAQRFVKKSTKHELLFRGLFTCGACGQVLTGERQKAHVYYRCHTPRCGRGAIREDRLEETLREKLARLEISPEDQVTLESDIRAWLNKDGVKDIEKSLRLRISDATARLDRLTDLLVDGAIDKPAYELRKQNVEFEKQQLREELDALERSRAEEKDLKALLALAADLSSLYDAAPPPKKRELIRNCLVAPCVMDGQLVSHPADWLVSLRKSPKTDEKSHSAPQAILEGVRVMHAVVDVEGHHHHHH | soluble
MGSDKIHHHHHHMSNTVRAISPDITLFNKTLTFQEISQNTREAVIYIHGGAWNDPENTPNDFNQLANTIKSMDTESTVCQYSIEYRLSPEITNPRNLYDAVSNITRLVKEKGLTNINMVGHSVGATFIWQILAALKDPQEKMSEAQLQMLGLLQIVKRVFLLDGIYSLKELLVEYPEYDCFTRLAFPDGIQMYEEEPSRVMPYVKKALSRFSIDMHLVHSYSDELLTLRQTNCLISCLQDYQLSFKLYLDDLGLHNDVYKNGKVAKYIFDNIC | not soluble
GPGSMHFPALFPEPLATAHASRLHPFPWSSSYESIFLCPPTSLCSSAASMTQPTLTEDELDDALGLAIRAANTAAFISNSVIDDKTNNIVEAQTRNNPNDLVTQCEKHCKEEVLNILRVGTPSYAILSDDMHSEAVLGDGPTWIVGPIDGTVSFKHGLFDFCISIALALRKEPILGVVCAPRLQEVFTAVNNRGAFSNGQRIHVSLVDSLRQSVVLLHHSGTRSDAAVRSVAAMQAELAKLPVQGLRCNGSAALDMCLVAAGRAELFWKAGVNPWNVAAGVIIVREAGGVVHDVESTDSFDLTCRSVCCGCSLDVTKHGVELSLKHNYRSSVLNTSS | not soluble
MPLAVLERDGSFLGVLTPHSIVEVLLERERRLLEDARKINAEIRREADKAIEQLDIKAHYDTVTGLPNRQLFCDRLLQALAAHERDGNPVVLLFLDVDNFKSINDSLGHLVGDRLLRATAERIRTAVRDGDTVARIGGDEFTILLNGAKDTLNGALVAQKILDGLAQPFVFGAQQIVISVSIGIAVSPADGETMEQLLRNADTAMYHAKSRGKNNYQFFSPELNVQAYRRQEIERNLRCALLQGELGLRYAPRVDLRSGRIVALEVCPFWLSSELGDVPPDDFIPVAEETGLIVQIGIWAFRTACAHAAVWRTQGLADRCLSFRLSQRELDDPQFGDRIMSLLDGCGLEPENLQFELSERMLMTHAAHTLAVLQELSNRGIRFSVGDFGTGNASLRRLRRFPIDELKIDLSSVRDIEPDSDDAAVITAMIAMAKSLRMDVVAVGVETPEHVAFLLERGCRHGQGRLIGARLPPERIAALLAGDAVDLFVALEHHHHHH | not soluble
VQRCVIIQKDQHGFGFTVSGDRIVLVQSVRPGGAAMKAGVKEGDRIIKVNGTMVTNSSHLEVVKLIKSGAYVALTLLGSS | soluble
MGSDKIHHHHHHMKLPRFGVEEWLNVHEKNATYDIAGVSIAALSLEELFQLTQQDLNAFFQELGQKKMDYGWIEGSPQFKAEVCKLYKNIQAEQVLQTNGATGANMLALYALIEPEDHVISMYPTYQQLYDIPKSLGAQVDLWQIKEDSKWLPDLDELRQLIRPNTKMICINNAHNPTGAIMDEAYLKELVAIVESCGAYILSDEVYKTFASDKNIPAIVDLYDKGISVDSLSKAYSLPGIRVGWVASNKKVTAVLRDYRDYTMICAGVFDDMLASFALKHRQAIIQRNQEIVVDNLQILQDWLAKEPRAQAILPDHVSTSLIKLNVPMLIETFCLKLLSDYGVLVVPGNRFDIEGHVRLGYCGDTEILKAGLTRLSQCLRQFDEQAKIT | not soluble
SKRAATLTDIKHIKQLDLSDHKSLEFARDIFLFSFYMRGMSFIDLAYLRKKDLNSGFVSYSRRKTGKKLIIRWEKQMQEIIDRYGDSETQYLLPIIEREDGTEHRQYRNKMLLVNRKLKKIAARAGLTTPLTMYVARHSWASIAKTKNISIGIISEAMGHDSETTTQIYLSSIQTNQIDNANRN | not soluble
MCPCPHSQAQGETDGEAEWHNAALDFTHAMSYGDYLKLDKVLDAQFPLSPDHNEMLFIIQHQTSELWMKLMLHELRAAREHVKSGKLGPALKMLARVSRIFDQLVHAWAVLATMTPTEYNTIRPYLGQSSGFQSYQYREIEFILGNKNATLLKPHAHRAELLAALEQALHTPSLYDEAIRLMAAQGLPVSQERLARDAAAGTCYEASVEAAWRQVYQAPERYWDLYQLAEKLIDLEDSFRQWRFRHVTTVERIIGFKPGTGGTEGVGYLRSMLDTILFPELWRLRSNL | not soluble
MAHHHHHHMLPNHSCKGFVDAQGRVFVDGREYPMASGIVATEDVIQANIKAMANTIAKDYKSLSHRDVRLSPGTAATAEAAEAPISYDNPLIIISVLKGSYIFTSDFIRYLGDCGLPHVVDFVRLASYNSDTTSTGQISMLAGLRFENLRGKHVLIVEDVCDSGRTLRFLRDYIMEKFQPKSVKTLVMVNKEQAARKLDFDPEYFCLAGPNKYIVGYGFEVNDRYRDLRHIFILRDGEATRYPAKL | soluble
MPRKKSAGPRSFGEPLTDDPDDAPELLDEFFRTGEIRVDGKIVRRGRPPLGTQPKSSVTLRLDADVLDAYRALGRGWQSQINADLRRVRKLKKA | not soluble
TPIINDPETVKLFLLTELQHEEREVFMVLFLDNQHRLIKKERLFLGTIYVSAVYPREIIKEALYCNAAALILAHNHPSGITEPSYSDQLITKKIQDAAELMEIRVLDHLIVGKSDCYSFAENCLL | not soluble
MGGTLLNISPTQHKILKLLIENEKISMREISEKLSVNMSTVSRNFRSLLESGFALKVEEASPGSSGGRKTALYTANPNKFFILGIGVEQNRLIGVVIDAKGNEVEKSEIHRSFRGDEIVNALVDCVEPFKEKYPNTVGISIGMPGIIKENKVIFSSALGIEDLDLGRILSKEFGTEIFVLNDANAAVVGYGFQKKNVVYFLISVPYYLNQPVGVGAGLWLEGSLYQGSNGAAGEFEIDILPSILSGPATLDEVDLKNLSSDSFLKLLSKLSEVASFVSYLLDPETVIFGGDITLFSPEFHSGLAKNVRDHLEKRHISDVEVLFDERGLWTVAFGAAKAFWKRILEDYEFAGKILK | not soluble
GMGSLAEWYQRIPTPDDLTRVESLFANMQAQFPQLKLEFKWNQPMFTDHGTFIMGFNPSKKHLAVAIEPQTMTRFIPQIDKAGYDHSQIIRFPWHKPLDEQLIHDLIAYTIDQKKDATTFWQR | soluble
